These results are taken from patent US20250277020A1 (Boehringer Ingelheim, published 2025).

Several values for one entry are separate records, joined by “and”; a condition that tells them apart may be missing. Equal values may be shown once.

The target in experiment [1] is T1, Full-length human CTGF (human, UniProt P29279 27-349).
T1 construct: Corresponds to NCBI NP_001892.1 with the signal peptide omitted; purchased from R&D Systems; also called hCTGF full length; full length CTGF
T1 sequence: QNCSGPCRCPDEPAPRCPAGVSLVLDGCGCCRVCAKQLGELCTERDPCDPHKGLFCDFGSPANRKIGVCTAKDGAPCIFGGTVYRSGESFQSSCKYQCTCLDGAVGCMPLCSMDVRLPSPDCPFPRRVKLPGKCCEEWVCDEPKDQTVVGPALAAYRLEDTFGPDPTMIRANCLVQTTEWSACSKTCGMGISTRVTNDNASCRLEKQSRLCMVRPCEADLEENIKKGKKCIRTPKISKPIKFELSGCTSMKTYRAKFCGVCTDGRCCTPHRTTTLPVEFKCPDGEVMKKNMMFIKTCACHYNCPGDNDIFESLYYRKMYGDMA
The experiment is described as follows: SPR, full length CTGF; Table 15 screen of humanized variants, SPR on full length CTGF. In a few lines:
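Humanized antibody variants were made by co-expressing each of eight heavy-chain variable-region variants with each of sixteen light-chain variable-region variants in CHO cells, giving 128 combinations. Binding affinity (Kd) of each combination for full-length human CTGF was determined by surface plasmon resonance. The text gives no instrument, chip, concentrations, temperature, buffer, replicates or fitting model for this measurement.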

For experiment [2], the target named is T2, Human N-terminal fragment of CTGF (CTGF-NTF) (human, UniProt P29279 27-180).
T2 construct: Recombinantly expressed; also called hCTGF NTF; CTGF N-terminal fragment
T2 chain: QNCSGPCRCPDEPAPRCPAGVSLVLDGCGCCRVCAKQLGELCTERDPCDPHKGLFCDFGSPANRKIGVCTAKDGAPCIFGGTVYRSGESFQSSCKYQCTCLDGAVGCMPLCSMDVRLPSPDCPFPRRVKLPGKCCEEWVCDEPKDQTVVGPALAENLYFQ
The experiment is described as follows: SPR Biacore 8K+, mAb captured on Protein A/G, hCTGF NTF as analyte. The method, then: (§1) Binding affinity of anti-CTGF antibodies H1 (having the light chain of SEQ ID NO: 22 and the heavy chain of SEQ ID NO: 23), H2 (having the light chain of SEQ ID NO: 24 and the heavy chain of SEQ ID NO: 25), F1, and A97 for full length human CTGF or human CTGF N-terminal fragment are determined by surface plasmon resonance (SPR).
(§2) Surface plasmon resonance is conducted using a Biacore 8K+ (Cytiva). Protein A/G (Thermo Scientific) is amine coupled to CM5 Sensor S Chip (Cytiva). For binding to hCTGF N-terminal fragment (NTF), anti-CTGF antibody (1 μg/ml) is captured on the Protein A/G surface, followed by various concentrations of antigen (100 nM to 0.78 nM; 2-fold dilutions). For binding to hCTGF full length, anti-CTGF antibody (0.2 μg/ml) is captured followed by various concentrations of antigen (10 nM to 0.156 nM; 2-fold dilutions).

Experiment [3] has as its target T1, Full-length human CTGF. The experiment is described as follows: SPR Biacore 8K+, mAb captured on Protein A/G, full length hCTGF as analyte. How it is done: as §1, §2

B1: Antibody A97 (antibody, human IgG1, kappa, L234A L235A)
light: VVMTQTPLSLSVSLGDQASISCKSSQSIVHYNGNTYLEWYLQKPGQSPQLLIYKVSSRASGVPDRFSGSGSGTDFTLKISRVEAEDLGVYYCFQGSHFPLTFGQGTKLEIKRTVAAPSVFIFPPSDEQLKSGTASVVCLLNNFYPREAKVQWKVDNALQSGNSQESVTEQDSKDSTYSLSSTLTLSKADYEKHKVYACEVTHQGLSSPVTKSFNRGEC
heavy: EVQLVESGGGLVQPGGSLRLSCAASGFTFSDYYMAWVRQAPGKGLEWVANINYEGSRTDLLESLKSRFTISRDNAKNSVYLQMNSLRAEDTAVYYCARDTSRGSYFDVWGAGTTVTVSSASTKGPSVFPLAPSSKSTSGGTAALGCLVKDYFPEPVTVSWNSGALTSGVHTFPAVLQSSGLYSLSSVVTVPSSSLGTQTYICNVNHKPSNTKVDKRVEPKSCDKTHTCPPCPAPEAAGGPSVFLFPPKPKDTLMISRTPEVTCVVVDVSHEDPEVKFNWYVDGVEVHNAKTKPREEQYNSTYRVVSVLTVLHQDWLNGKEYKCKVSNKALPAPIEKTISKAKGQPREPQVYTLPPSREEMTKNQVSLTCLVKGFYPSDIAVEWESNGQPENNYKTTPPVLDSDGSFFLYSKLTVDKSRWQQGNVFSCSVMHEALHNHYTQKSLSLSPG
notes: also called Antibody 97
Regarding B1, the values for the Kd (in the experiment with Full-length human CTGF [1]; in experiment [2]; in the experiment with Full-length human CTGF [3]) were 0.14 nM, 0.14 nM and 0.0018 nM, respectively. The koff in experiment [2] amounted to 4e-05 s⁻¹; with Full-length human CTGF [3], 4.8e-06 s⁻¹. In addition, the kon in experiment [2] turned out to be 290000 M⁻¹ s⁻¹; with Full-length human CTGF [3], 2.7e+06 M⁻¹ s⁻¹.

B2: Antibody F1 (antibody, V domains shown)
VH: EGQLVQSGGGLVHPGGSLRLSCAGSGFTFSSYGMHWVRQAPGKGLEWVSGIGTGGGTYSTDSVKGRFTISRDNAKNSLYLQMNSLRAEDMAVYYCARGDYYGSGSFFDCWGQGTLVTVSS
VL: DIQMTQSPSSLSASVGDRVTITCRASQGISSWLAWYQQKPEKAPKSLIYAASSLQSGVPSRFSGSGSGTDFTLTISSLQPEDFATYYCQQYNSYPPTFGQGTKLEIKR
notes: Comparator anti-CTGF antibody, full length
B2: in experiment [2], the Kd is 30.3 nM and 30 nM; the off-rate constant (koff) was 0.0105 s⁻¹; the kon amounted to 345000 M⁻¹ s⁻¹. In the experiment with Full-length human CTGF [3], the Kd was 0.247 nM and 0.25 nM; the koff is 0.00337 s⁻¹; the kon is 1.37e+07 M⁻¹ s⁻¹.

B3: Antibody H2 (antibody, human IgG1, kappa, V domains shown)
VH: EVQLVESGGGLVQPGGSLRLSCAASGFSFNTYAMNWVRQAPGKGLEWVARIRTKSNNYATYYADSVKDRFTISRDDSESSLYLQMNSLKTEDTAVYYCVETGFAYWDQGTLVTVSS
VL: EIVLTQSPATLSLSPGERATLSCSASSSVSYMHWFQQKPGQSPKLWIYSTSNLASGVPARFSGSGSGTDYTLTISSLEPEDFAVYYCQQRSSYPLTFGQGTKLEIKR
notes: as for B2
Consider B3, for which, in experiment [2], the Kd was 45.7 nM and 46 nM; the koff is 0.0175 s⁻¹; the kon was 383000 M⁻¹ s⁻¹. In addition, in the experiment with Full-length human CTGF [3], the Kd is 0.554 nM and 0.55 nM; the koff amounted to 0.00149 s⁻¹; the kon was 2.7e+06 M⁻¹ s⁻¹.
